Assay results reported in patent US20190367636A1 (Bayer, published 2019).

How the values were obtained:
[1] = target: T1, activated human coagulation factor XI (hFXIa) (human, UniProt P03951 19-625, limits assumed); test: SPR (Biacore), binding of lyophilized formulation test sample at t0 to human FXIa, relative to BAY 1213790 reference standard
T1 construct: also called human factor XIa; human FXIa
Experimental: The binding of the BAY 1213790 test sample and of the BAY 1213790 reference standard to human factor XIa (FXIa) antigen is determined by surface plasmon resonance spectroscopy (SPR, Biacore). The binding affinity of the test sample is compared to the BAY 1213790 reference standard.

[2] = target: T1, activated human coagulation factor XI …; test: ELISA, lyophilized formulation after 36 months at 2-8 C, relative to BAY 1213790 reference standard
[3] = target: T1, activated human coagulation factor XI …; test: cell-based or functional assay

B1: BAY1213790 (antibody, human IgG1, kappa, V domains shown)
VH: EVQLLESGGGLVQPGGSLRLSCAASGFTFSQYGMDWVRQAPGKGLEWVSGIGPSGGSTVYADSVKGRFTISRDNSKNTLYLQMNSLRAEDTAVYYCTRGGPYYYYGMDVWGQGTTVTVSS
VL: DIQMTQSPSSLSASVGDRVTITCQASQDISNYLNWYQQKPGKAPKLLIYDASNLETGVPSRFSGSGSGTDFTFTISSLQPEDIATYYCQQADSFPVTFGGGTKVEIKR
notes: Human monoclonal IgG; also called anti-FXIa antibody; anti-hFXIa monoclonal antibody
[1]
  Activity relative to reference (Biacore): 108%
[2]
  Activity relative to reference (ELISA): 104%
[3]
  Activity relative to reference (Bioassay), t0: 104%
  Activity relative to reference (Bioassay), t = 36 months at 2-8 C: 101%
